Tests used:
Drebrin (Homo sapiens) = Drebrin (Homo sapiens) (UniProt Q16643); test: anti-FLAG co-IP LC-MS, exp 3, +Dox
[1] = target: Antigen peptide transporter 1 (Homo sapiens) (UniProt Q03518); test: anti-FLAG co-IP LC-MS, exp 3, +IFNg +Dox
[2] = target: Splicing factor 3B subunit 3 (Homo sapiens) (UniProt Q15393); test: anti-FLAG co-IP LC-MS, exp 3, +IFNg +Dox
[3] = target: Clathrin heavy chain (Homo sapiens) (UniProt Q00610); test: anti-FLAG co-IP LC-MS, exp 3, +IFNg +Dox
[4] = target: Caveolae-associated protein 1 (Homo sapiens) (UniProt Q6NZI2); test: anti-FLAG co-IP LC-MS, exp 3, +IFNg +Dox
Serpin B3 (Homo sapiens) = Serpin B3 (Homo sapiens) (UniProt P29508); test: anti-FLAG co-IP LC-MS, exp 3, +IFNg +Dox
[5] = target: Serine/threonine-protein phosphatase 2A 65 kDa regulatory subunit A alpha isoform (Homo sapiens) (UniProt P30153); test: anti-FLAG co-IP LC-MS, exp 3, +IFNg +Dox
[6] = target: ADP/ATP translocase 2 (Homo sapiens) (UniProt P05141); test: anti-FLAG co-IP LC-MS, exp 3, +IFNg +Dox
Plectin (Homo sapiens) = Plectin (Homo sapiens) (UniProt Q15149); test: anti-FLAG co-IP LC-MS, exp 3, +IFNg +Dox
[7] = target: Tubulin beta-4B chain (Homo sapiens) (UniProt P68371); test: anti-FLAG co-IP LC-MS, exp 3, +IFNg +Dox
[8] = target: Tubulin beta-6 chain (Homo sapiens) (UniProt Q9BUF5); test: anti-FLAG co-IP LC-MS, exp 3, +IFNg +Dox
[9] = target: 40S ribosomal protein S14 (Homo sapiens) (UniProt P62263); test: anti-FLAG co-IP LC-MS, exp 3, +IFNg +Dox
[10] = target: Cytoskeleton-associated protein 4 (Homo sapiens) (UniProt Q07065); test: anti-FLAG co-IP LC-MS, exp 3, +IFNg +Dox
[11] = target: 60S ribosomal protein L8 (Homo sapiens) (UniProt P62917); test: anti-FLAG co-IP LC-MS, exp 3, +IFNg +Dox
[12] = target: 4F2 cell-surface antigen heavy chain (Homo sapiens) (UniProt P08195); test: anti-FLAG co-IP LC-MS, exp 3, +IFNg +Dox
[13] = target: Procollagen-lysine, 2-oxoglutarate 5-dioxygenase 3 (Homo sapiens) (UniProt O60568); test: anti-FLAG co-IP LC-MS, exp 3, +IFNg +Dox
[14] = target: Alpha-actinin-4 (Homo sapiens) (UniProt O43707); test: anti-FLAG co-IP LC-MS, exp 3, +IFNg +Dox
[15] = target: Keratin, type II cytoskeletal 71 (Homo sapiens) (UniProt Q3SY84); test: anti-FLAG co-IP LC-MS, exp 3, +IFNg +Dox
[16] = target: T-complex protein 1 subunit theta (Homo sapiens) (UniProt P50990); test: anti-FLAG co-IP LC-MS, exp 3, +IFNg +Dox
[17] = target: Neuroblast differentiation-associated protein AHNAK (Homo sapiens) (UniProt Q09666); test: anti-FLAG co-IP LC-MS, exp 3, +IFNg +Dox
[18] = target: Prolyl 4-hydroxylase subunit alpha-1 (Homo sapiens) (UniProt P13674); test: anti-FLAG co-IP LC-MS, exp 3, +IFNg +Dox
[19] = target: Stress-70 protein, mitochondrial (Homo sapiens) (UniProt P38646); test: anti-FLAG co-IP LC-MS, exp 3, +IFNg +Dox
[20] = target: 40S ribosomal protein S4, X isoform (Homo sapiens) (UniProt P62701); test: anti-FLAG co-IP LC-MS, exp 3, +IFNg +Dox
[21] = target: Heterogeneous nuclear ribonucleoprotein H (Homo sapiens) (UniProt G8JLB6); test: anti-FLAG co-IP LC-MS, exp 3, +IFNg +Dox
[22] = target: 40S ribosomal protein S6 (Homo sapiens) (UniProt P62753); test: anti-FLAG co-IP LC-MS, exp 3, +IFNg +Dox
[23] = target: 60S ribosomal protein L19 (Homo sapiens) (UniProt P84098); test: anti-FLAG co-IP LC-MS, exp 3, +IFNg +Dox
Caprin-1 (Homo sapiens) = Caprin-1 (Homo sapiens) (UniProt Q14444); test: anti-FLAG co-IP LC-MS, exp 3, +IFNg +Dox
[24] = target: Ras GTPase-activating protein-binding protein 2 (Homo sapiens) (UniProt Q9UN86); test: anti-FLAG co-IP LC-MS, exp 3, +IFNg +Dox
[25] = target: Neutral cholesterol ester hydrolase 1 (Homo sapiens) (UniProt Q6PIU2); test: anti-FLAG co-IP LC-MS, exp 3, +IFNg +Dox
[26] = target: 60S ribosomal protein L3 (Homo sapiens) (UniProt P39023); test: anti-FLAG co-IP LC-MS, exp 3, +IFNg +Dox
[27] = target: 60 kDa heat shock protein, mitochondrial (Homo sapiens) (UniProt P10809); test: anti-FLAG co-IP LC-MS, exp 3, +IFNg +Dox
[28] = target: Tubulin alpha-4A chain (Homo sapiens) (UniProt P68366); test: anti-FLAG co-IP LC-MS, exp 3, +IFNg +Dox
[29] = target: KN motif and ankyrin repeat domain-containing protein 2 (Homo sapiens) (UniProt Q63ZY3); test: anti-FLAG co-IP LC-MS, exp 3, +IFNg +Dox
[30] = target: Signal transducer and activator of transcription 3 (Homo sapiens) (UniProt P40763); test: anti-FLAG co-IP LC-MS, exp 3, +IFNg +Dox
[31] = target: X-ray repair cross-complementing protein 5 (Homo sapiens) (UniProt P13010); test: anti-FLAG co-IP LC-MS, exp 3, +IFNg +Dox
[32] = target: ATP synthase subunit alpha, mitochondrial (Homo sapiens) (UniProt P25705); test: anti-FLAG co-IP LC-MS, exp 3, +IFNg +Dox
Sequence of ATP synthase subunit alpha, mitochondrial (Homo sapiens) (P25705 44-553 limits assumed): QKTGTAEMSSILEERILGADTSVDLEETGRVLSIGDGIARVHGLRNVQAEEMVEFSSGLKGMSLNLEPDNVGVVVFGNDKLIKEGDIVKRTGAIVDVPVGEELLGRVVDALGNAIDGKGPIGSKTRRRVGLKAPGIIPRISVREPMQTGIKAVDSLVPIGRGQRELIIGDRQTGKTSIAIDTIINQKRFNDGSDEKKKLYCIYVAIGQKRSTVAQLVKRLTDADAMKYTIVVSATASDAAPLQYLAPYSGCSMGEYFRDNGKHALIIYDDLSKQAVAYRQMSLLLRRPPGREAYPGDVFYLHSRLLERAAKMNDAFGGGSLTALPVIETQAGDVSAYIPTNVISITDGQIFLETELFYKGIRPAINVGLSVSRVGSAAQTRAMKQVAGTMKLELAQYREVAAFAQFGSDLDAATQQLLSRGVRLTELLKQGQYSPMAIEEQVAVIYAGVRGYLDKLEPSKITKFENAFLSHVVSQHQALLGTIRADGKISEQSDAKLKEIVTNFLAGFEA

Sequence of 4F2 cell-surface antigen heavy chain (Homo sapiens) (P08195 103-630 limits assumed): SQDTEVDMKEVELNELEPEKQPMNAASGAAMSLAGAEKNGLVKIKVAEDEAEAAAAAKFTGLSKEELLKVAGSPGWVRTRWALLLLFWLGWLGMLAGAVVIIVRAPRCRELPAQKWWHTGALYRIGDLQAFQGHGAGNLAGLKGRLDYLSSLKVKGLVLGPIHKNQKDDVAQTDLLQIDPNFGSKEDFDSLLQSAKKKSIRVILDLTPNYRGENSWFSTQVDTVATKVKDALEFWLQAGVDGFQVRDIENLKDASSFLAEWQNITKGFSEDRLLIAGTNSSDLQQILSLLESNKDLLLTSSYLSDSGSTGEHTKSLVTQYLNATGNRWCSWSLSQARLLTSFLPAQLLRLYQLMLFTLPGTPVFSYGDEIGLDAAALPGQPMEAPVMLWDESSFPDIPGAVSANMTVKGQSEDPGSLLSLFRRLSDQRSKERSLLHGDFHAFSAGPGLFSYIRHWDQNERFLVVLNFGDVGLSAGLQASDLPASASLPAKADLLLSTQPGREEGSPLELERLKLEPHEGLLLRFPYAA
Sequence of Serpin B3 (Homo sapiens) (P29508 whole entry, canonical isoform): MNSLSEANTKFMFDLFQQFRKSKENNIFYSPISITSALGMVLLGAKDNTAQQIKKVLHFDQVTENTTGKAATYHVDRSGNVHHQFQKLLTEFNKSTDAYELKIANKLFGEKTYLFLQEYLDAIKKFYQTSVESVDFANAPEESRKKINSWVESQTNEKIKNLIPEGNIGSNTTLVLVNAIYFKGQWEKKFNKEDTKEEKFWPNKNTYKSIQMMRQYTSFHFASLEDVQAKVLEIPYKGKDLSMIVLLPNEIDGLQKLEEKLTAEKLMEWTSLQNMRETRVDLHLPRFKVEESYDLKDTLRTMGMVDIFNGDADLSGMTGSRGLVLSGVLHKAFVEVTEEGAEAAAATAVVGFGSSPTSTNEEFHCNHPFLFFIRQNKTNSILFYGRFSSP
Sequence of Cytoskeleton-associated protein 4 (Homo sapiens) (Q07065 whole entry): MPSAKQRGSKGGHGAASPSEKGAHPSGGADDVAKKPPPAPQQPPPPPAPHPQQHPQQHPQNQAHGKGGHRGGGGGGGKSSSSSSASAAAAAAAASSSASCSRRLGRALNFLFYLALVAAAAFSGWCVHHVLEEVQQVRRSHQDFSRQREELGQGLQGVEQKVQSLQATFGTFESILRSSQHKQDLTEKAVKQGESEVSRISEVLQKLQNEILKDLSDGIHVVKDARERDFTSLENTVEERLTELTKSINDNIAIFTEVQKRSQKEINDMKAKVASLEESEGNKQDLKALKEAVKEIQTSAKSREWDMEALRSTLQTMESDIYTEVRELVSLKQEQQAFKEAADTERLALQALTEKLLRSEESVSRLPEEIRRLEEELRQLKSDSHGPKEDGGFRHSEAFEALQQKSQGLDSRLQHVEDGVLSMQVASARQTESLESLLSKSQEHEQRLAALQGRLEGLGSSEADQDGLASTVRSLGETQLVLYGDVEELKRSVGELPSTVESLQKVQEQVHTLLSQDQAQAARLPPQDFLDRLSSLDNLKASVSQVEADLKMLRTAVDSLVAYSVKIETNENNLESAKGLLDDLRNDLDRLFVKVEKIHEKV
Sequence of Alpha-actinin-4 (Homo sapiens) (O43707 whole entry): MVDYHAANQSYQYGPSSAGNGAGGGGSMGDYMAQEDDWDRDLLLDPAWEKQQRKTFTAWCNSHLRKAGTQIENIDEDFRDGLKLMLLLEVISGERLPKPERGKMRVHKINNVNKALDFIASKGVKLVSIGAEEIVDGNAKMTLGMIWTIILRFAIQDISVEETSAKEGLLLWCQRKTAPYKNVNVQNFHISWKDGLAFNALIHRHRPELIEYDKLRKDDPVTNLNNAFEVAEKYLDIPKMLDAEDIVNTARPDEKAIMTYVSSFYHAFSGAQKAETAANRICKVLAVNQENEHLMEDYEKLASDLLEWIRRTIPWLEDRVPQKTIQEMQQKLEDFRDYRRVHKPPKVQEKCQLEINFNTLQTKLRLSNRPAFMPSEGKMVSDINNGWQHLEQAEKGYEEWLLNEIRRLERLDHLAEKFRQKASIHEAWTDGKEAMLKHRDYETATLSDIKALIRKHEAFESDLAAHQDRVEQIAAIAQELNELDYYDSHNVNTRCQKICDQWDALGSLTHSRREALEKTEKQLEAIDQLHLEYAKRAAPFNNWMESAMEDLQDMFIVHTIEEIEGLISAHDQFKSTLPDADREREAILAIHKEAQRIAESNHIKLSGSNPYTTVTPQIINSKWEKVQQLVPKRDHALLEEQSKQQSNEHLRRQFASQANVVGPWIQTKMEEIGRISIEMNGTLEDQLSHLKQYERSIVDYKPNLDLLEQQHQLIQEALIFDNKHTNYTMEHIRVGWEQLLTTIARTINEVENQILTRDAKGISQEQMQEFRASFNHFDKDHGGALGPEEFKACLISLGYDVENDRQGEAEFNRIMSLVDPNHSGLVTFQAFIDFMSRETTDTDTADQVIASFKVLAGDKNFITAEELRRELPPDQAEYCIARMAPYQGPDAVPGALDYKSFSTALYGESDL
Sequence of Caveolae-associated protein 1 (Homo sapiens) (Q6NZI2 whole entry): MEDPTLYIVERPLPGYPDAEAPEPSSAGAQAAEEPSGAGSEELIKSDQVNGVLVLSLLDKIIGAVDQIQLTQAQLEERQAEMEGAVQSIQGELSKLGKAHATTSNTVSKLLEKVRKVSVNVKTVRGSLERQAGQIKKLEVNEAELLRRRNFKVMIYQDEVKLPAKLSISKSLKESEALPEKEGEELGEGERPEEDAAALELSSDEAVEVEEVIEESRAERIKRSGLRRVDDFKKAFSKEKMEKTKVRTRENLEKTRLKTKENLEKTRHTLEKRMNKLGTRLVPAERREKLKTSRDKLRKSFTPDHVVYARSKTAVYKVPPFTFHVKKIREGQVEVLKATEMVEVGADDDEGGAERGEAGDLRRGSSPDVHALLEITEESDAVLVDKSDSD
Sequence of Keratin, type II cytoskeletal 71 (Homo sapiens) (Q3SY84 whole entry): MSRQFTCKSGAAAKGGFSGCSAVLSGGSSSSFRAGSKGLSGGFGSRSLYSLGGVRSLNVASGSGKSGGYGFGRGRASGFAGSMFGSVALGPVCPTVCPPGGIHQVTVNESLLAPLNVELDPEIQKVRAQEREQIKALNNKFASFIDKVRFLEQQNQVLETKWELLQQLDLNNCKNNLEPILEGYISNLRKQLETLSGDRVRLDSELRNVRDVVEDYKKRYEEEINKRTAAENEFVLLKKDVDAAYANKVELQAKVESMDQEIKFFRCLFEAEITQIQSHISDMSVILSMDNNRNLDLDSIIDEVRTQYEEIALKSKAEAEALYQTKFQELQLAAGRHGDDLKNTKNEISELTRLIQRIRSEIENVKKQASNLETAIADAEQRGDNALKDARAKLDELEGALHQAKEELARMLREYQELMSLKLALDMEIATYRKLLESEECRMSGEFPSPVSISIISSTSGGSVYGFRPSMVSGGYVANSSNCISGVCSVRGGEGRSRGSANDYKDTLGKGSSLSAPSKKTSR
Sequence of Neutral cholesterol ester hydrolase 1 (Homo sapiens) (Q6PIU2 whole entry): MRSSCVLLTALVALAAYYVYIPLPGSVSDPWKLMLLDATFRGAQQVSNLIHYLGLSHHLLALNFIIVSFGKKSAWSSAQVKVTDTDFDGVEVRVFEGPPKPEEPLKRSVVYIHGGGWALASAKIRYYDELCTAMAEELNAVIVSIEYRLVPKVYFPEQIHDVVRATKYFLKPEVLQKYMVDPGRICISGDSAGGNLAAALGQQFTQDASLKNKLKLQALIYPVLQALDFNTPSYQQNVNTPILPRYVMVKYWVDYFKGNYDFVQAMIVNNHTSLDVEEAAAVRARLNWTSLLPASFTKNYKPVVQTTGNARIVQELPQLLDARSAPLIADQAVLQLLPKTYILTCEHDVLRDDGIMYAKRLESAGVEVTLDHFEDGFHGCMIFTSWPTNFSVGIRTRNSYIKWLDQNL
Sequence of Caprin-1 (Homo sapiens) (Q14444 2-709 limits assumed): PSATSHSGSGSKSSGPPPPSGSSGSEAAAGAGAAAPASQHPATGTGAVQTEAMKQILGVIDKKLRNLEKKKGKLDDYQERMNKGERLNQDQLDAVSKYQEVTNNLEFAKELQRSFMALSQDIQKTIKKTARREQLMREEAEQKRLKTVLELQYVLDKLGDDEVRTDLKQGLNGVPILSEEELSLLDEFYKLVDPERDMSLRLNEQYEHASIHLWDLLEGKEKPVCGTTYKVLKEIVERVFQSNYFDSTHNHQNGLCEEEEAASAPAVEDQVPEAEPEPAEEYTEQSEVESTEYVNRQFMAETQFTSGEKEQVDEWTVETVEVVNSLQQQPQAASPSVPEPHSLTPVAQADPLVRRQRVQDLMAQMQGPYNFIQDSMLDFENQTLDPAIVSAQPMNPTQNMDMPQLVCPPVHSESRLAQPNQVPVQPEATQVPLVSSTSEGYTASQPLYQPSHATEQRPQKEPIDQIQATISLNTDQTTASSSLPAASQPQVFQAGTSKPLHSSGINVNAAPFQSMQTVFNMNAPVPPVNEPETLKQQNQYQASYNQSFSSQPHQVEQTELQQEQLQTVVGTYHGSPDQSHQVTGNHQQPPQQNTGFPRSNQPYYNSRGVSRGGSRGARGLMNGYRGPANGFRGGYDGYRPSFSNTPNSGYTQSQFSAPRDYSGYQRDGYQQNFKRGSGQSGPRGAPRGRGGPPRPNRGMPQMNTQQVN

**Q.** Which results are given for i3XFLAG-NLS-CTDaa154-424?
**A.** PSMs (Drebrin (Homo sapiens)): 3 PSMs; PSMs [1]: 3 PSMs; PSMs [2]: 3 PSMs; PSMs [3]: 11 PSMs; PSMs [4]: 3 PSMs; PSMs (Serpin B3 (Homo sapiens)): 2 PSMs; PSMs [5]: 14 PSMs; PSMs [6]: 3 PSMs; PSMs (Plectin (Homo sapiens)): 21 PSMs; PSMs [7]: 70 PSMs; PSMs [8]: 39 PSMs; PSMs [9]: 3 PSMs; PSMs [10]: 62 PSMs; PSMs [11]: 2 PSMs; PSMs [12]: 2 PSMs; PSMs [13]: 2 PSMs; PSMs [14]: 11 PSMs; PSMs [15]: 9 PSMs; PSMs [16]: 2 PSMs; PSMs [17]: 4 PSMs; PSMs [18]: 5 PSMs; PSMs [19]: 10 PSMs; PSMs [20]: 2 PSMs; PSMs [21]: 7 PSMs; PSMs [22]: 3 PSMs; PSMs [23]: 2 PSMs; PSMs (Caprin-1 (Homo sapiens)): 5 PSMs; PSMs [24]: 3 PSMs; PSMs [25]: 11 PSMs; PSMs [26]: 11 PSMs; PSMs [27]: 2 PSMs; PSMs [28]: 39 PSMs; PSMs [29]: 3 PSMs; PSMs [30]: 3 PSMs; PSMs [31]: 5 PSMs; PSMs [32]: 2 PSMs

— patent publication US20250339531A1, “DUX4 POLYPEPTIDES AND NUCLEIC ACIDS FOR TREATING INFLAMMATORY AND AUTOIMMUNE CONDITIONS” (Fred Hutchinson Cancer Center, priority 2021, published 2025)
